Results: PMC9852224

Tests used:
BAK = BAK (UniProt Q16611); experiment: FLAG co-immunoprecipitation, immunoblot; settings: reference: WT-FLAG-MCL-1; sites T163
Noxa = Noxa (UniProt Q13794); experiment: FLAG co-immunoprecipitation, immunoblot; settings: reference: WT-FLAG-MCL-1; sites T163
[1] = target: Mule (preparation of Supplemental Figure 3D, not told) (UniProt Q7Z6Z7)

binding against the reference (BAK) | binding against the reference (Noxa) | stoichiometry N [1] | Substance
lost | lost |  | Mcl-1 (from UniProt Q07820) T163A-FLAG-MCL-1
 |  | 2 | Mule (preparation of Supplemental Figure 3D, not told) (from UniProt Q7Z6Z7 1-4374) (natural protein)
